# According to the DeepSol protein solubility set:
# Experiment: soluble on expression in E. coli; label from the status in PepcDB or PDB records
row,Sequence,soluble on expression in E. coli
1,MEKPASKSKRKPKETSDDVDADVLPEKGLHNSDGFLFYHASFRPLTSAQHRRAEEHGIDLKTKKVFTVEESIQVFENWRKFATEHNMKLAKAPEYISPKKTDRHIFKHQEEHHFWPKLCDGLPHRPACTIKMRAISMMTSSFMENLEWSRLAEEIKAKLHTYETNDDLTMQKAQKLLEKGYAASHVAEILNVSNGKMSSMASKLRTLEARNDPTMIHAFYESTVYFGLKLKKLRRAITTNDDYRIESVRRKVRLEEIGLQLHISEQKCKDLLKIVIETIRTKYTESLEEAGLDEDEAWSKALALVDSRPPIEESQLYKALEIICKHIEKAETTGSLLSHEQLPSIIKSHGITGFQSDRSEYAYLHFRLCGLLMHQLTTGFFEHLRREFPLQIKLHCLLWSYKRLDVWEKICVEEGKTRYETVLKSEIANPLASKMTLKFLKNEKVVEWISDPRPPKNRQKAATRRLETAIESFILYSYNKFGETFKFPAKFRRILHTSKTVRSVLEVVSDPENAEFLSIKEARKTVEDASGCKIAVKIKNKRIVPKLKDESDASEDGESENSDSEDLIKHSHSIERSAFEERRDEIEKVLQRADPSKIRAKFRKKDEIPEEILLSKELRQQKRAMTRAAEKLERLEAKICSAEFIDDGSGCSYSQVDEDLLEREKKRKRKKSEASEVVIGTDQLDTAEDLQGSKKKKHAEVLEGKDHEDTGCSDSQQVMDPEVCEDLVEKEKKKKRKRKISEASEVVIGMNQMERAEDLQRSKKKKHAEILEGNDHEDSENLKKRSKKKKKRKDHDAEFDAELDLDSENLDEEPKKRKKHC,soluble
2,MPDYDLIAILGPTASGKTPFAAALAAELNTEIISADSRQIYRGMDLGTGKDLEDYTINGRQIPYHLIDIADPGYKYNVFEYQRDFLTAYETIKQKGCLPVLCGGTGLYLESVLKGYRLIPVPENQELRVRLAEKSLEELTAILSSYKTLHNSTDVDTVKRAIRAIEIEEYYAKTPIEEREFPQLNSLIIGVDIDRELRREKITRRLKQRLDDGMVEEVRRLLAEGIQPDDLIYYGLEYKYLTLYAIGKMTYDEMFTGLETAIHQFAKRQMTWFRGMERRGFTIHWVDASLPMEEKINFVKQKLKEFLEHHHHHH,soluble
3,MSTLLPFPCEEKIPEGKYVLRTFEIKEGQVKEKLKDLNYEILASLSGVDLTFEKEEEWKKAKEILSDYVYTDRPESLEETLGRILKEKGFTLSTAESCTAGMLSSRIVNVPGSSEYFVGGFVVYSNDLKVKYLCVSEDTLKKYGAVSWQTCLEMTVGLKSNLGTDCGIAITGIAGPGGTLTKPQGLTYIGIFVKDKLTVIKRIFKGSRNENRFLSTQTAIFYLLKLLKR,soluble
4,GPGSMSKGFEVYPLTGSHKEVVINEALIRSAISFKPSLTTEDDRVRVVGNQEKALCEEKVQKEAAGIALEDVQTLLLSFRGIKRLENLSCLRSLTKLHLDNNRIRCIEHLESLVHLEWLDLSYNAIEVIDGLQALQHLNCLSLYANKITAVDGLTCLPELNTLSLGRNPLENIDETVHYLHHLPRLQVLTLKECPLAGLPNYRSRVLAFVRGLKFFDGHLVRHDEAAKAREAFRENLLTVDEEDEARAAAAKLQADQEIIASSYQQYNCPNEVMLFDELLHLDPEGRHMEAILRSEAVFSVAKEPLDRYQTEFNEQLRQLTAAMKDIRERRDADDAAYREAVTYTLRHSAAASLASMQRFEALAKGHIVKGVAQPVPGPAKRLPSQATRSLHAALDKLKKDLLEEEAHQYDVLEVLHNNTIAKWKSHSVEVVLQSSFEALLRLETDFQATVRHIFDAVFEERRKGDNAERAFRYVGQDDAMLAFLDNKEEYQRTVNEWYELRRKRVEELEMHHLKAEETLLNARANSILAAEQDRHRRRVHEVCQYVKEMSSRIDGCDH,not soluble
5,GHVLLLRPVRSEDVEPLQGVFALMGPQEIRERFAPSATGSSERFQQLTNPNAKREIVLVAAEQLPPGEAMIAALARASIVPNSRHAEYIILVSSFVSGQGLGRQLLRKLVKWARGKYLDHLYGDILERNRPMLELAESLGFQRESHPESPDLVRMTLKL,not soluble
6,MPALSHGLSRFRGEAKPPGPSPRRSRESMAMDSKASMFTHGARPARIALFSGNYNYTLDGANKSLNRLVDHVQRTTGAQVRIYSPTSPTPAFAPVGELVSVPSVTIPFRRDYRLALGLPAAVRRDVEAFAPDLIHLSAPDLLGAAALKLGRRLKTPVVASLHTLFDSYLDYYGLGGLRALARRRLWQFYGACDFVMTPTPAIGEELRAQNLGVQVRTWARGVDADLFNPARRSADWRAAQGFDPDRPVIVFLGRLVMEKGLAAFADTIDRLAASGPSPQVLIIGDGPARAWFQERLPMATFAGFLTGEALATALASADIFLNPSTTETFGNVNLEAMASGLAIVCADAPNTRALLRDGRDAILCAPSDPASYAQALLSLCQDQNRLRRMGAKALDRSAAYRWTEILDEVVDIYAEALDARASAPSRAEVSPHELRARTGRRAGLIDAQAAALSTPLEHHHHHH,soluble
7,MLEELTLERFLSHRSAFSLVIDVRSPHEYLESHLPGALNLPVLSDLEHERVGTLYKESPFEARILGASLICANIASALSWLKDSLHPSQKVLIYCARGGQRSLSLALILSSIGYQIARLIGGYKGYRAHVAASWQVPRKESFLTLVGPTGGGKSELIQSLSWSLDIEGLARHKGSSFGAIEGEQPSTKMFQNLLFERLLGLREEPLVAVEGESKRLGNLILPSPLYERYKSAPKVFIDSPLEARIDRTMQEYASISPAFFEGAMQKIARYMNKEAHKAASLAFWQGDLRRCAELLLVEYYDKVYKMEPCEYTILHTSKESTLKELERIKGEILSSVRE,not soluble
8,MKEYLKEKAHQLPLTPGVYLMKDATDTIIYVGKAKKLKNRVSSYFINSNQHSRKTMRLVKQIIDFDVLHTDTELDALLLECQLIQQYRPRYNRQMNAYEQYSYVSVAVNERQLEIKLLNIPTKENCFGPYSIRRKLNRLKIILDSIYDLVPTNYWHQTFQKESAIPTELFQQELFDFFHNQGREPIKRIAQQMQEAAEKQAFEKAAKLKEDWLFLTRFANQNQRISQANQRDWQLMWLPCQKKIKYYLIYQGLVVATRVVTKQTFQKYSPLELAKKIMPKKPPKTIEHYSKQQVDFLNILYGYISRHPECHLENLTIEKA,not soluble
9,MGSDKIHHHHHHMKIVTYSKNVFIPLTRNCRNRCDYCGFRSEEIGVMSAEEVRKILSAARGAKEALFTFGERPDEVYPEFKAMLLEMGYKSMVDYILEMNKIAVEMGFLPHTNAGILSKEEMRKLKPYNASMGLMLEQAVELECHANSPGKKPEVRIKMIRDAGKLQIPFTTGILVGIGEGREDRLYSLEIIAEIQDNYGHIQEVIVQNFKPKKGTPMENTPPPTLEEMLEAVKAAREILPQEVAIQIPPNLVDDIYPFLKAGANDVGGISNVTHDYINPESPWPEVERLERALRGEFILKERLPIYPRFVKLKWYGEALEPLIEKYSDADGYARP,not soluble
10,GMLTGKHVVIIGGDARQLEIIRKLSTFDAKISLVGFDQLDDGFIGVTKMRIDEVDWNTVDAILLPISGTNEAGKVDTIFSNESIVLTEEMIEKTPNHCVVYSGISNTYLNQCMKKTNRTLVKLMERDDIAIYNSIPTAEGTIMMAIQHTDFTIHGANVAVLGLGRVGMSVARKFAALGAKVKVGARESDLLARIAEMGMEPFHISKAAQELRDVDVCINTIPALVVTANVLAEMPSHTFVIDLASKPGGTDFRYAEKRGIKALLVPGLPGIVAPKTAGRILADVLVKLLAEPS,soluble
11,KGGVWRNTEDEILKAAVMKYGKNQWSRIASLLHRKSAKQCKARWYEWLDPSIKKTEW,soluble
12,MGSDKIHHHHHHMSLLVKAYRYGYTIARVTPASACWRYVGFAAYRLGTAEVVHVHEPSREVCIVVLTGTVDIETADTTWRSLGSRDSVFEDAAPYAVYLPPNVRATVRACRDAEIGVASAPARGGYPARLIEPASMKRSTRGKGLNTRYVCDILPQTEPAESLLVVEVRTPGGHASSYPPHKHDTDNVPQESSLEETYYHRLDPPQGFAFQRVYTDMRDIDESMAVEDHDVVMVPRGYHPVVVPYGYDSYYLNVMAGGKRVWHFRNDPAHEWIINKDA,not soluble
13,ISGQKEFEEKPLESKEKYQDLFNLIEQAVQIGEIVFDENGRSIDNIILDVNLAYEKHSGLRREQVIGRGFKEIFPIVEQRWLDRYGEVVRTGMGMHFEEYNASLDRWFEVFASPMGSNRFIAVFSDIT,not soluble
14,MNGKEIGEKNSKKYSFEVDSRSVYKCVQCGTCRSVCPVFDVVGWESANTRGRMLIIKSLLEGRPPSEDVLPSLASCTTCGICAAKCPAGANPPEVVEAARAQLVKCGVTTEAQLEHHHHHH,not soluble
15,MRDIVIIGHKAKTSGDFSLNDLPGSAGRMDILCRCVSSALFLSFGMRRDVNVHLLLLGEPDPGKIIRFEGLHLRYLNPDERSSGSLIQKALLKNAAGQDIRSTPGVWTRTGDLNSLLASFEGRTLLYLREDGKDFREIAREIQDPVFILGDHTGVTEEEEKQLLEAGAQVISVGPISLHSNHCITLIHNELDRAEAERGEIPGGNISRPED,not soluble
16,MGSDKIHHHHHHMGLPMWANGDWRGSLYARHAPSSGMLHDYGAVFGSVEGNTTFYSGPPKADTVAQWARQAPADFRFCFKLPAQLTHDKRLVGIEDDFRTFCDALAPLHDRLGPTMVQLPRDFGARELPALAAFLEKWPSDMPCAVEVRHSEFFHKGDAEQQLNRLLITLGVDRVMLDVRPLFATPAGDDARLIKAQSEKPKRPLHVISTGRMPIVRFIGHCDMEINERLFAPWCERLALWIKQGKTPFLFVHTPDNRQAPQLARRFHARLSRCVTLPPLGDFPGERQSALF,not soluble
17,LVPRGSDSSRRQYQEKYKQVEQYMSFHKLPADFRQKIHDYYEHRYQGKMFDEDSILGELNGPLREEIVNFNNRKLVASMPLFANADPNFVTAMLTKLKFEVFQPGDYIIREGTIGKKMYFIQHGVVSVLTKGNKEMKLSDGSYFGEISLLTRGRRTASVRADTYSRLYSLSVDNFNEVLEEYPMMRRAFETVAIDRLDRIGKKN,soluble
18,AHHHHHHGSQRLEESTSCRGVGDMRKAIIVGVGMTPVGEHWRSSLRDLAVEAILNAMDDAGIDKVDSLYVGNMASGSFVEQENLGALIADWAGLGNIPAVKIEAACASGGAAVQEGAKAVLSGLEDVVLVVGVEKMTDAWPSDATRYLGYAADAEWELFHGASFVALNALIMRLYMNTYGYKEEDLALFAVNAHANGAKNPYAMFKKPITVETVMKSPYIADPLKLFDASPVCDGAAAVIITTPEKAKELGIPKDKWIEIAGMGRAIDTINLANREDFLTLKAATIAAERAYKMAGVKPEDVDFFEVHDAFTVMAALSLEALGVAKKGEGAKLAIEGQIAIDGDYPIQTMGGLKARGHPVGATGVYQVVEAVLQLRGEAPDGIQVPDAEVGLTQNIGGTGSNITVTVLRRV,soluble
19,MVMKQTKQTNILAGAAVIKVLEAWGVDHLYGIPGGSINSIMDALSAERDRIHYIQVRHEEVGAMAAAADAKLTGKIGVCFGSAGPGGTHLMNGLYDAREDHVPVLALIGQFGTTGMNMDTFQEMNENPIYADVADYNVTAVNAATLPHVIDEAIRRAYAHQGVAVVQIPVDLPWQQIPAEDWYASANSYQTPLLPEPDVQAVTRLTQTLLAAERPLIYYGIGARKAGKELEQLSKTLKIPLMSTYPAKGIVADRYPAYLGSANRAAQKPANEALAQADVVLFVGNNYPFAEVSKAFKNTRYFLQIDIDPAKLGKRHKTDIAVLADAQKTLAAILAQVSERESTPWWQANLANVKNWRAYLASLEDKQEGPLQAYQVLRAVNKIAEPDAIYSIDVGDINLNANRHLKLTPSNRHITSNLFATMGVGIPGAIAAKLNYPERQVFNLAGDGGASMTMQDLATQVQYHLPVINVVFTNCQYGFIKDEQEDTNQNDFIGVEFNDIDFSKIADGVHMQAFRVNKIEQLPDVFEQAKAIAQHEPVLIDAVITGDRPLPAEKLRLDSAMSSAADIEAFKQRYEAQDLQPLSTYLKQFGLDDLQHQIGQGGF,soluble
